According to patent US20260070986A1 (AFFIMED, published 2026):

B1: scFv-IgAb_148 (CD123-1xCD16a2) (bispecific antibody)
chain 1: QVQLQQSGAEVKKPGASVKVSCKASGYTFTDYYMKWVKQSHGKSLEWMGDIIPSNGATFYNQKFKGKATLTVDRSTSTAYMELSSLRSEDTAVYYCARSHLLRASWFAYWGQGTLVTVSSASTKGPSVFPLAPSSKSTSGGTAALGCLVKDYFPEPVTVSWNSGALTSGVHTFPAVLQSSGLYSLSSVVTVPSSSLGTQTYICNVNHKPSNTKVDKKVEPKSCDKTHTCPPCPAPEFEGGPSVFLFPPKPKDTLMISRTPEVTCVVVAVSHEDPEVKFNWYVDGVEVHNAKTKPREEQYNSTYRVVSVLTVLHQDWLNGKEYKCKVSNKALPAPIEKTISKAKGQPREPQVYTLPPSREEMTKNQVSLTCLVKGFYPSDIAVEWESNGQPENNYKTTPPVLDSDGSFFLYSKLTVDKSRWQQGNVFSCSVMHEALHNHYTQKSLSLSPGGGGGSGGGGSGGGGSGGGGSGGGGSGGGGSSYVLTQPSSVSVAPGQTATISCGGHNIGSKNVHWYQQRPGQSPVLVIYQDNKRPSGIPERFSGSNSGNTATLTISGTQAMDEADYYCQVWDNYSVLFGGGTKLTVLGGSGGSGGSGGSGGSGGSGGSQVQLVQSGAEVKKPGESLKVSCKASGYTFTSYYMHWVRQAPGQGLEWMGAIEPMYGSTSYAQKFQGRVTMTRDTSTSTVYMELSSLRSEDTAVYYCARGSAYYYDFADYWGQGTLVTVSS
chain 2: not shown
notes: also called CD123xCD16A scFv-IgAb_148; CD16a2xCD123-1
B2: scFv-IgAb_265 (CD123-1xCD16a2) (bispecific antibody)
chain 1: QVQLQQSGAEVKKPGASVKVSCKASGYTFTDYYMKWVKQSHGKSLEWMGDIIPSNGATFYNQKFKGKATLTVDRSTSTAYMELSSLRSEDTAVYYCARSHLLRASWFAYWGQGTLVTVSSASTKGPSVFPLAPSSKSTSGGTAALGCLVKDYFPEPVTVSWNSGALTSGVHTFPAVLQSSGLYSLSSVVTVPSSSLGTQTYICNVNHKPSNTKVDKKVEPKSCDKTHTCPPCPAPEFEGGPSVFLFPPKPKDTLMISRTPEVTCVVVAVSHEDPEVKFNWYVDGVEVHNAKTKPREEQYNSTYRVVSVLTVLHQDWLNGKEYKCKVSNKALPAPIEKTISKAKGQPREPQVYTLPPSREEMTKNQVSLTCLVKGFYPSDIAVEWESNGQPENNYKTTPPVLDSDGSFFLYSKLTVDKSRWQQGNVFSCSVMHEALHNHYTQKSLSLSPGGGGGSGGGGSGGGGSGGGGSGGGGSGGGGSSYELTQPLSVSVALGQTARITCGGHNIGSKNVHWYQQKPGQAPVLVIYQDNKRPSGIPERFSGSNSGNTATLTISRAQAGDEADYYCQVWDNYNVLFGCGTKLTVLGGSGGSGGSGGSGGSGGSGGSQVQLVQSGAEVKKPGASVKVSCKASGYTFTSYYMHWVRQAPGQCLEWMGAIEPRYGSTSYAQKFQGRVTMTRDTSTSTVYMELSSLRSEDTAVYYCARGSAYYYDFADYWGQGTLVTVSS
chain 2: not shown
B3: scFv-IgAb_264 (CD123-2xCD16a2) (bispecific antibody)
chain 1: QVQLVQSGAEVKKPGASVKMSCKASGYTFTDYYMKWVKQAPGQGLEWIGDIIPSNGATFYNQKFKGKATLTVDRSISTAYMHLNRLRSDDTAVYYCTRSHLLRASWFAYWGQGTLVTVSSASTKGPSVFPLAPSSKSTSGGTAALGCLVKDYFPEPVTVSWNSGALTSGVHTFPAVLQSSGLYSLSSVVTVPSSSLGTQTYICNVNHKPSNTKVDKKVEPKSCDKTHTCPPCPAPEFEGGPSVFLFPPKPKDTLMISRTPEVTCVVVAVSHEDPEVKFNWYVDGVEVHNAKTKPREEQYNSTYRVVSVLTVLHQDWLNGKEYKCKVSNKALPAPIEKTISKAKGQPREPQVYTLPPSREEMTKNQVSLTCLVKGFYPSDIAVEWESNGQPENNYKTTPPVLDSDGSFFLYSKLTVDKSRWQQGNVFSCSVMHEALHNHYTQKSLSLSPGGGGGSGGGGSGGGGSGGGGSGGGGSGGGGSSYELTQPLSVSVALGQTARITCGGHNIGSKNVHWYQQKPGQAPVLVIYQDNKRPSGIPERFSGSNSGNTATLTISRAQAGDEADYYCQVWDNYNVLFGCGTKLTVLGGSGGSGGSGGSGGSGGSGGSQVQLVQSGAEVKKPGASVKVSCKASGYTFTSYYMHWVRQAPGQCLEWMGAIEPRYGSTSYAQKFQGRVTMTRDTSTSTVYMELSSLRSEDTAVYYCARGSAYYYDFADYWGQGTLVTVSS
chain 2: not shown
notes: also called CD123xCD16A ICE

Legend:
[1] = biological target: T1, human CD16A (158F) on transfected CHO cells (cAg_34) (human, UniProt P08637 17-254); test: flow cytometry on huCD16A-transfected CHO cells (cAg_34), one-site fit of MFI, experiment 2
T1 construct: Exact cell-anchored construct not described; also called huCD16A
T1 sequence (P08637 17-254 limits assumed): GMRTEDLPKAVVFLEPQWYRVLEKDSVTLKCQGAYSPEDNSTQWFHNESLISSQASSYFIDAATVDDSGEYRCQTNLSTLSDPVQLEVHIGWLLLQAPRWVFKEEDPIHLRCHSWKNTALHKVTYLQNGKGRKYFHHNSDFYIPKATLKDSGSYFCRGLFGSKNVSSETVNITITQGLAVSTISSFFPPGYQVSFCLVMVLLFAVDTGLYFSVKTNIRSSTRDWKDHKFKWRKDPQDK
Description: (§1) After washing in FACS buffer, cells were incubated in 50 μL FACS buffer without antibodies or with titrated antibodies starting at a concentration of 100 μg/mL followed by ten 5-fold serial dilutions for 30 min on ice in the dark. After washing twice, cells were incubated with APC-conjugated goat anti-human IgG (H+L)-APC (Dianova, cat. 109-136-088) for 30 min on ice in the dark. […] After washing, binding was measured by flow cytometry and mean fluorescence intensities (MFI) of cell samples were calculated and corrected for background staining using control cells stained with secondary antibodies only.
(§2) Equilibrium dissociation constants (KD) of antibody binding were calculated by plotting MFI values and fitting a non-linear regression model for one-site binding to hyperbolic dose-response curves using GraphPad Prism.

[2] = biological target: T2, recombinant human CD16A 158V, biotinylated mFc.silenced/Avi-tagged (human, UniProt P08637 17-208, biotinylated (Avi-tag)); test: SPR (Biacore), 37 °C, multi-cycle kinetics, biotin-captured antigen as ligand, antibody construct as analyte, 1:1 binding model
T2 construct: not shown: silenced mouse Fc (mFc.silenced) and Avi-tag
T2 sequence (P08637 17-208 F176V limits assumed): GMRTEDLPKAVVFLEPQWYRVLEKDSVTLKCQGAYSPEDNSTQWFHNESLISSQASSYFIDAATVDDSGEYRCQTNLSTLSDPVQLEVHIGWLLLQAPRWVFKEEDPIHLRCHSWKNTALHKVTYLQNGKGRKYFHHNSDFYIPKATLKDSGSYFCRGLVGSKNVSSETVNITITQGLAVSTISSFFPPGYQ
Description: (§3) After each cycle, chip surfaces were regenerated with 6M guanidine-HCl, 0.25M NaOH and reloaded with Biotin Capture reagent. Interaction kinetics were determined by fitting data from multi-cycle kinetics experiments to a simple 1:1 interaction model using the local data analysis option (Rmax and RI) available within Biacore T200 Evaluation Software (v3.1). Referencing was done against a flow cell without captured ligand (Fc2-Fc1, Fc4-Fc3).
(§4) Affinity and kinetic parameters were evaluated for interaction with human CD16A and cynomolgus CD16 using a 1:1 Binding model.

[3] = biological target: T3, recombinant cynomolgus CD16, biotinylated mFc.silenced/Avi-tagged (cynomolgus, UniProt Q8SPW2 17-208, biotinylated (Avi-tag)); test: as above
T3 construct: not shown: silenced mouse Fc (mFc.silenced) and Avi-tag
T3 sequence (Q8SPW2 17-208): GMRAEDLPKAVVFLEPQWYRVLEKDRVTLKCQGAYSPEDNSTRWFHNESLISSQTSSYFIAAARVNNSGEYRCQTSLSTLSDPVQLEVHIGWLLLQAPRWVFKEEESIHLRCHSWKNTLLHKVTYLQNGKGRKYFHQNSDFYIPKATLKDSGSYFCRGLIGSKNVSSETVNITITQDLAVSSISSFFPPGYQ
Description: as §3, §4

[4] = biological target: T4, recombinant human CD16A 158F, biotinylated mFc.silenced/Avi-tagged (human, UniProt P08637 17-208, biotinylated (Avi-tag)); test: as above
T4 construct: not shown: silenced mouse Fc (mFc.silenced) and Avi-tag
T4 sequence (P08637 17-208): as the sequence (P08637 17-208 F176V limits assumed) above, with V160F counted along it
Description: as §3, §4

[5] = biological target: T1, human CD16A (158F) on transfected CHO …; test: flow cytometry on huCD16A-transfected CHO cells, anti-human IgG-APC detection
Description: To analyze binding of different antibody constructs to CHO cells transfected with human CD16A (cAg_34), relative to CD16 expression by flow cytometry, 1-2×10⁵ were resuspended in 100 μL FACS buffer (PBS (Invitrogen, cat.: 14190-169) containing 2% heat-inactivated FCS (Invitrogen, cat.: 10270-106), and 0.1% sodium azide (Roth, Karlsruhe, Germany, cat.: A1430.0100)) in round-bottom 96-well microtiter plates. After washing in FACS buffer, cells were incubated in 50 μL FACS buffer without antibodies or with titrated antibodies starting at a concentration of 100 μg/mL followed by ten 5-fold serial dilutions for 30 min on ice in the dark. After washing twice, cells were incubated with APC-conjugated goat anti-human IgG (H+L)-APC (Dianova, cat. 109-136-088) for 30 min on ice in the dark. […] After washing, binding was measured by flow cytometry and mean fluorescence intensities (MFI) of cell samples were calculated and corrected for background staining using control cells stained with secondary antibodies only.
as §2

[6] = biological target: T1, human CD16A (158F) on transfected CHO …; test: flow cytometry on huCD16A-transfected CHO cells (cAg_34), one-site fit of MFI, mean of 3 experiments
Description: as §1, §2

[7] = biological target: T1, human CD16A (158F) on transfected CHO …; test: flow cytometry on huCD16A-transfected CHO cells (cAg_34), one-site fit of MFI, experiment 3
Description: as §1, §2

[8] = biological target: T1, human CD16A (158F) on transfected CHO …; test: flow cytometry on huCD16A-transfected CHO cells (cAg_34), one-site fit of MFI, experiment 1
Description: as §1, §2

[9] = biological target: T5, CD123 on CD123+ cells (EOL-1 and other CD123+ tumour or patient cells) (human, UniProt P26951 19-378); test: flow cytometry on CD123+ EOL-1 cells, anti-human IgG-APC detection
T5 construct: whole, on cells; also called interleukin-3 receptor
T5 sequence (P26951 19-378): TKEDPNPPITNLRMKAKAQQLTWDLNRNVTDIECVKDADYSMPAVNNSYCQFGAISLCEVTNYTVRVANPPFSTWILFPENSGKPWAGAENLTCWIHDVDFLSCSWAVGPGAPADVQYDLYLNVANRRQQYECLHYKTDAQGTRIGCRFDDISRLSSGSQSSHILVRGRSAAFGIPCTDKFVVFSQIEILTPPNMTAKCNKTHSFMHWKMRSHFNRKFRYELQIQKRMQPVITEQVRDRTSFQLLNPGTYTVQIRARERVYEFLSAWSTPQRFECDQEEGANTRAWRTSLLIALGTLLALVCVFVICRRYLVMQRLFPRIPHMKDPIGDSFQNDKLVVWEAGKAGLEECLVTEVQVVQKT
Description: To analyze binding of CD123xCD16A antibody constructs to CD123+ EOL-1 cells, CD123− A-431 cells and CD123− Karpas-299 cells by flow cytometry, 1×10⁵ cells were resuspended in 100 μL FACS buffer in round-bottom 96-well microtiter plates. After washing in FACS buffer, cells were incubated in 100 μL FACS buffer without antibodies or with titrated antibodies starting at a concentration of 100 μg/mL followed by eight 10-fold serial dilutions for 45 min on ice in the dark. After washing twice, cells were incubated with APC-conjugated goat anti-human IgG (H+L)-APC (1/200 dilution) for 30 min on ice in the dark. After washing, binding was measured by flow cytometry and mean fluorescence intensities (MFI) of cell samples were calculated and corrected for background staining using control cells stained with secondary antibodies only.

Binder | Kd [1] [nM] | Kd [2] [nM] | koff [2] [s⁻¹] | kon [2] [M⁻¹ s⁻¹] | Kd [3] [nM] | koff [3] [s⁻¹] | kon [3] [M⁻¹ s⁻¹] | Kd [4] [nM] | koff [4] [s⁻¹] | kon [4] [M⁻¹ s⁻¹] | EC50 (read off the curve) [5] [nM] | Kd [6] [nM] | Kd [7] [nM] | Kd [8] [nM] | EC50 (read off the curve) [9] [nM]
B1 | 18.7 | 0.75 | 0.00023 | 310000 | 2.48 | 0.00047 | 190000 | 1.25 | 0.00037 | 300000 | ~20 | 37.6 | 37.9 | 56.2 | –
B2 | – | – | – | – | – | – | – | – | – | – | – | – | – | – | ~0.4
B3 | – | 0.43 | 0.0027 | 6.3e+06 | 2.4 | 0.013 | 5.2e+06 | 0.567 | 0.0036 | 6.4e+06 | – | – | – | – | ~0.4
